Measured values reported in article PMC9388093.

Biological target: T1, rPfTPx-1 (thioredoxin peroxidase 1) (Plasmodium falciparum, UniProt Q8IL80 1-195)
T1 sequence: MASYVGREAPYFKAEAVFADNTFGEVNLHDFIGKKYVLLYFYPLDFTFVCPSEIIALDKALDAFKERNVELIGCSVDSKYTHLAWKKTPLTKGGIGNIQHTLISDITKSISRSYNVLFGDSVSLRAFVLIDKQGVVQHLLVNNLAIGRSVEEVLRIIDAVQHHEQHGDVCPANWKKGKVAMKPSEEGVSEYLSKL
Assay: EMSA

Question: Does AUCACAUACAUAUACACAAACACUUAUACAUACACAUA (ssRNA) [IntPE (PE) RNA probe, fluorescent] bind?
Answer: Result: binds
